The target of test [1] is T1, RBD domain of the spike protein of SARS-CoV-2 virus (Acro Biosystems SPD-C52H3) (SARS-CoV-2, UniProt P0DTC2 319-537).
T1 construct: domain: RBD domain
The test can be described thus: Affinity (SPR) by Octet; antigen not named, taken from the epitope column.

Test [2] deals with RBD domain of the spike protein of SARS-CoV-2 virus (Acro Biosystems SPD-C52H3) (SARS-CoV-2, UniProt P0DTC2 319-537).
The target of test [3] is SARS-CoV-2 spike protein receptor binding domain (RBD) (SARS-CoV-2, UniProt P0DTC2 319-541).

By Kd is commonly meant a measure of binding affinity in units of concentration. A higher Kd goes with lower affinity. A word on the IC50: it is the midpoint of a concentration-inhibition curve. Low readings indicate greater potency, high ones weaker potency.

B1: YANG-1113 (antibody, V domains shown)
VH: EVQLVESGGGLVKPGGSLRLSCAASGFTFSSYSMNWVRQAPGKGLEWVSSISTGSSYIFYADSVKGRFTMSRDNAKNSLYLQMNSLRAEDTAVYYCAKTGDLPFFDYWGQGTPVTVSS
VL: QSALTQPASVSGSPGQSITISCTGTSSDVGRYNYVSWYQQHPGKAPKLMIYEVSNRPSGVSNRFSGSKSGNTASLTISGLQAEDEADYYCSSYTSSSTMVFGGGTKLTVL
B1: in test [1], the dissociation constant (Kd) was < 0.1 nM.

B2: YANG-1118 (antibody, V domains shown)
VH: EVQLVESGGGLVKPGGSLRLSCAASGFTFSSYALNWVRQAPGKGLEWVSSISTGSSYIFYADSVKGRFTISRDNAKHSLSLQMNSLRAEDTAVYYCAKTGDLPFFDYWGQGTLVTVSS
VL: QSALTQPASVSGSPGQSITISCTGTSSDVGRYNYVSWYQQHPGKAPKLMIYEVSNRPSGVSNRFSGSKSGNTASLTISGLQAEDEADYYCISYTSSSTMVFGGGTKLTVL
Regarding B2, in test [1], the dissociation constant Kd is < 0.1 nM.

B3: YANG-1114 (antibody, V domains shown)
VH: EVHLVESVGGLVKPGGSLRLSCAASGFTFSSYSMNWVRQAPGKGLEWVSSISTGSSYIFYADSVKGRFTISRDNAKNSLYLQMNSLRAEDTAVYYCAKTGDLPFFDYWGQGTLVTVSS
VL: QSALTQPASVSGSPGQSITISCTGTSSDVGRYNYVSWYQQHPGKAPKLMIYEVSNRPSGVSNRFSGSKSGNTASLTISGLQAEDEADYYCSSYTSSSTMVFGGGTKLTVL
As for B3, in test [1], the equilibrium dissociation constant (Kd) is < 0.1 nM.

B4: YANG-1115 (antibody, V domains shown)
VH: EVQLVESGGGLVKPGGSLRLSCAASGFTFSSYSMNWVRQAPGKGLEWVSSISTGSSYIFYADSVKGRFTISRDNAKNSLYLQMNSLRAEDTAVYYCAKTGDLPFFDYWGQGTLVTVSS
VL: QSALTQPASVSGSPGQSITISCTGTSSDVGRYNYVSWYQQHPGKAPKLMIYEVSNRPSGVSNRFSGSKSGNTASLTISGLQAEDEADYYCSSYTSSSTMVFGGGTKLSVL
With B4, the dissociation constant Kd in test [1] was < 0.1 nM.

B5: YANG-1116 (antibody, V domains shown)
VH: EVQLVESGGGLVKPGGSLRLSCEASGFNFRSYALNWVRQAPGKGLEWVSSISTGSSYIFYADSVKGRFTISRDNAKNSLSLQMNSLRAEDTAVYYCAKTGDLPFFDYWGQGTLVTVSS
VL: QSALTQPASVSGSPGQSITISCTGTSSDVGRYNYVSWYQQHPGKAPKLMIYEVSNRPSGVSNRFSGSKSGNTASLTISGLQAEDEADYYCISYTSSSTMVFGGGTKLTVL
Take B5: in test [1], the dissociation constant (Kd) is < 0.1 nM.

B6: YANG-1117 (antibody, V domains shown)
VH: EVQLVESGGGLVKPGGSLRLSCAASGFTFSSYSVNWVRQAPGKGLEWVSSISTGSSYIFYADSVKGRFTISRDNAKNSLYLQMNSLRAEDTAVYYCVKTGDLPFFDYWGQGTLVTVSS
VL: QSALTQPASVSGSPGQSITISCTGTRSDVGRYNYVSWYQQHPGKAPKLMIYEVTNRPSGVSNRFSGSKSGNTASLTISGLQAEDEADYYCSSYTNNSTMVFGGGTKLTVL
B6: the Kd in test [1] was < 0.1 nM.

B7: IMPI-054 (antibody, V domains shown)
VH: EVQLVESGGGLIQPGGSLRLSCAASGLTVSSNYMSWVRQAPGKGLEWVSIIYSGGSTYYADSVKGRFTISRDNSKNTLYLQMNSLRAEDTAVYYCARLGGYYYYGMDVWGQGTTVTVSS
VL: DIQMTQSPSSLSASVGERVTITCQASQDIRNYLNWYQKKPGKAPKLLIYDSSNLETGVPSRFSGSGSGTDFTFTISSLQPEDIATYYCQQYDNLPITFGQGTRLEIK
Take B7: in test [2], it took 2.28 nM to reach half-maximal inhibition (IC50).

B8: IMPI-042 (antibody, V domains shown)
VH: EVQLVESGGGLIQPGGSLRLSCAASGLTVSSNYMSWVRQAPGKGLEWVSIIYSGGSTYYADSVKGRFTISRDNSKNTLYLQMNSLRAEDTAVYYCARLGGYYYYGMDVWGQGTTVTVSS
VL: DIQMTQSPSSLSASVGERVTITCQASQDIRNYLNWYQKKPGKAPKLLIYDSSNLETGVPSRFSGGGSGTDFTFTISSLQPEDIATYYCQQYDNLPITFGQGTRLEIK
In the case of B8, the IC50 in test [2] was determined as 5.54 nM.

B9: IMPI-006 (antibody, V domains shown)
VH: QLQLQESGPGLVKPSETLSLTCTVSGGSISNSNYYWGWIRQPPGKGLEWIGSIYYSGRTYYNPSLKSRVTISVDTSKNQFSLKLSSVTAADTAVYYCARMGLLWFGEFYGMDVWGQGTTVTVSS
VL: DIQMTQSPSSLSASVGDRVTITCRASQGISSWLAWYQQKPEKAPKSLIYDASSLQRGVPSRFSGSGSGTDFTLTISSLQPEDFASYYCQQYNSYPLTFGGGTRVEIK
In test [3], B9 displayed a Kd of 191 nM.

B10: IMPI-029 (antibody, V domains shown)
VH: EVQLVESGGGLIQPGGSLRLSCAASGVTVSSNYMNWVRQAPGKGLEWVSVIYSGGSTYYADSVKGRFTISRDNSKNTLFLQMNSLRAEDSAVYYCARDLGPYGVDVWGQGTTVTVSS
VL: DIQLTQSPSFLSASVGDRVTITCWASQGISSYLAWYQQKPGKAPKLLIYAASTLQSGVPSRFSGSGSGTEFTLTISSLQPEDFATYYCQELNSYPLTFGQGTRLEIK
In test [2], B10 registered an IC50 of 1.26 nM.

B11: IMPI-052 (antibody, V domains shown)
VH: EVQLVESGGGLIQPGGSLRLSCAASGVTVSSNYMNWVRQAPGKGLEGVSVIYSGGTTYYADSVKGRFTISRDNSKNTLYLQMNSLRAEDTAVYYCARDTVVYGMDVWGQGTTVTVSS
VL: DIQLTQSPSFLSASVGDRVTITCWASQGISSYLAWYQQKPGKAPKLLIYTASTLQSGVPSRFSGSGSGTEFTLTISSLQPEDFATYYCQQLNSYPLTFGGGTKVEIK
Molecule B11 displayed a 50% inhibitory concentration (IC50) in test [2] of 4.85 nM.

B12: IMPI-047 (antibody, V domains shown)
VH: EVQLVESGGGLIQPGGSLRLSCAASGFTVSSNYMNWVRQAPGKGLEWVSVIYSGGSTYYADSVKGRFTISRDNSKNTLYLQMNSLRTEDTAVYYCARDLVAYGMDVWGQGTTVTVSS
VL: DIQLTQSPSFLSASVGDRVTITCWASQGISSYLAWYQQKPGKAPKVLIYAASTLQSGVPSRFSGSGSGTEFTLTISSLQPEDFATYYCQLLNSNPLTFGGGTKVEIK
For the molecule B12, in test [2], the half-maximal inhibitory concentration (IC50) was 3.36 nM.

B13: IMPI-017 (antibody, V domains shown)
VH: EVQLVESGGGLIQPGGSLRLSCAAAGLTVSSNYMNWVRQVPGKGLEWVSVIYSGGSTYYADSVKGRFTISRDNSKNTLYLQMNSLRAEDTAVYYCARDLGTLGMDVWGQGTTVTVSS
VL: DIQLTQSPSFLSASVGDRVTITCWASQGISTYLAWYQQKPGKAPKLLIYAASTLQSGVPSRFSGSGSGTEFTLTISSLQPEDFATYYCQQLNSYLPTFGQGTKVEIK
As to B13, the 50% inhibitory concentration (IC50) in test [2] was 0.832 nM.

B14: IMPI-005 (antibody, V domains shown)
VH: EVQLVESGGGLIQPGGSLRLSCAASGFTVSSNYMNWVRQAPGKGLEWVSVIYSGGSTYYADSVKGRFTISRDNSKNTLFLQMNSLRAEDSAVYYCARDLGPYGVDVWGQGTTVTVSS
VL: DIQLTQSPSFLSASVGDRVTITCWASQGISSYLAWYQQKPGKAPKLLIYAASTLQSGVPSRFSGSGSGTEFTLTISSLQPEDFATYYCQELNSYPLTFGQGTRLEIK
On to B14, for which the dissociation constant (Kd) in test [3] was 24.9 nM.

B15: IMPI-037 (antibody, V domains shown)
VH: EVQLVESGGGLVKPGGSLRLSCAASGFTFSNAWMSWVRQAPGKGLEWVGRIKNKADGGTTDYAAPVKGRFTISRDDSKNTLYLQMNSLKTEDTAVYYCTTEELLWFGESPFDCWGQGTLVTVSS
VL: DIQLTQSPSFLSASVGDRVTITCWASQGINSYLAWYQQKPGKAPKLLIYAASTLQSGVPSRFSGSGSGTEFTLTISSLQPEDFTTYYCQQFNDYPRTFGPGTKVEIK
B15 showed a concentration for half-maximal inhibition (IC50) in test [2] of 7.76 nM.

B16: IMPI-002 (antibody, V domains shown)
VH: EVQLVESGGGLIQPGGSLRLSCAASGVTVSSNYMSWVRQAPGKGLEGVSVIYSGGSTYYADSVKGRFTISRDNSKNTLYLQMNSLRAEDTAVYYCARDTVVYGMDVWGQGTTVTVSS
VL: DIQLTQSPSFLSASVGDRVTITCWASQGISSYLAWYQQKPGKAPKLLIYAASTLQSGVPSRFSGSGSGTEFTLTISSLQPEDFATYYCQQLNSYPLTFGGGTKVEIK
Regarding B16, the IC50 in test [2] was found to be 8.15 nM.

B17: IMPI-005 (antibody, V domains shown)
VH: EVQLVESGGGLIQPGGSLRLSCAASGFTVSSNYMNWVRQAPGKGLEWVSVIYSGGSTYYADSVKGRFTISRDNSKNTLFLQMNSLRAEDSAVYYCARDLGPYGVDVWGQGTTVTVSS
VL: DIQLTQSPSFLSASVGDRVTITCWASQGISSYLAWYQQKPGKAPKLLIYAASTLQSGVPSRFSGSGSGTEFTLTISSLQPEDFATYYCQELNSYPLTFGQGTRLEIK
With B17, the IC50 in test [2] came to 3.18 nM.

B18: IMPI-056 (antibody, V domains shown)
VH: EVQLVESGGGLIQPGGSLRLSCAASGLTVSSNYMNWVRQAPGKKLEWVSVIYSGGSTFYADSVRGRFTISRDNSKNTLFLQMNSLRAEDSAVYYCARDLGPYGVDVWGQGTTVTVSS
VL: DIQLTQSPSFLSASVGDRVTITCWASQGISSYLAWYQQKPGKAPKLLIYAASTLQSGVPSRFSGSGSGTEFTLTISSLQPEDFATYYCQQLNSYPLTFGQGTRLEIK
The molecule B18 had an IC50 in test [2] of 1.93 nM.

B19: IMPI-021 (antibody, V domains shown)
VH: EVQLVESGGGLIQPGGSLRLSCAASGVTVSSNYMSWVRQAPGKGLEWVSVIYSGGSTFYADSVKGRFTISRDNSKNTLYLQMNSLRAEDTAVYYCARDLSYYGMDVWGQGTTVTVSS
VL: DIQLTQSPSFLSASVGDRVTITCWASQGISSYLAWYQQKPGKAPKLLIYAASTLQSGVPSKFSGSGSGTEFTLTISSLQPEDFATYYCQQLNSYPCSFGQGTKLEIK
For the molecule B19, in test [2], the midpoint of inhibition, the IC50, lay at 4.87 nM.

B20: IMPI-055 (antibody, V domains shown)
VH: QVQLVQSGAEVKKPGASVKVSCKASGYTFTSYDINWVRQATGQGLEWMGWMNPNSGNTGYAQKFQGRVTMTRDTSINTAYMELSSLRSEDTAVYFCARGGRYCSDVTCYSGEPFDYWGQGTLVTVSS
VL: EIMLTQSPDFQSVTPKEKVTITCRASQSIGSSLHWYQQKPDQSPKLLIKFASQSISGVPSRFSGSGSGTDFTLTINSLEAEDAAAYYCHQSSSLPHTFGPGTKVEIK
Consider B20, for which half-maximal inhibition in test [2] (IC50) was put at 3.39 nM.

B21: IMPI-059 (antibody, V domains shown)
VH: EVQLVESGGGLIQPGGSLRLSCAASGFTVSSIYMSWVRQAPGKGLEWVSIIYSRGSTDYADSVKGRFTISRDISKNTLYLQMNSLRAEDTAVYYCARDGTMVRGVHAFDIWGQGTMVTVSS
VL: DIQMTQSPPSLSASIGDRVTITCQASQDISNYLNWYQQKPGKAPKLLIYDASNLETGVPSRFSGSGSGTDFTLTISNLQPEDIVTYYCQQYDNLPSSFGQGTKLEIK
In test [2], B21 had an IC50 of 2.02 nM.

These data come from patent US20250026813A1 (published 2025).
